Source: the supplement of paper PMC12764529
± gives the half width of the 95% confidence interval.

Columns and labels:
[1] = folding stability dG unfold from chymotrypsin proteolysis; higher = more stable
Procedure: (§1)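 Folding stability of de novo designed mini-proteins (<80 aa, no Cys; designed by TrROS, TrMRF, ProteinMPNN and the joint model) was measured by cDNA display proteolysis with trypsin and chymotrypsin. Each protease was used at 11 concentrations in a threefold dilution series plus a no-protease condition. K50 was inferred by Bayesian fitting of sequencing counts, and dG unfold was derived against a sequence-predicted unfolded-state K50 (Tsuboyama et al. method). Sequences shown include variable-length N-terminal GS-type padding (SAGGSAGG...) inside a display construct carrying a PA tag. Rows were kept only if the AF2 dimer inter-PAE was >15, to exclude likely homo-oligomers.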

[2] = folding stability dG unfold (combined trypsin and chymotrypsin); higher = more stable
Procedure: as §1

| Sequence | folding stability dG unfold [1] [kcal/mol] | folding stability dG unfold [2] [kcal/mol] |
| --- | --- | --- |
| SAGGSAGGWIKLDGKEVYIVIPDGNPEQIAKELKEQFPNGNIKPHPGQNAEEAAKKNKRVIWIPSAGGSAGG [r6_680_TrROS] | 0.771 ± 0.16 | 0.284 ± 0.37 |
| SAGGSAGGSMTITIKLDNVKEVEVKFNPETNVVEIKVKVDGKEYVIRMEFVDGKIYITEIKPLSAGGSAGGS [r20_60_TrROS_Hall] | 3.68 ± 0.34 | 4.06 ± 0.28 |
| SMEEKEEVLSVEVDPVGEVVVTRTLVKKSAVDPTNPNNPVPLSLEEIVEPVPLPPPVPLPVPGNPRFEAASA [r9_357_JUSTAS] | 0.77 ± 0.072 | 0.154 ± 0.081 |
| SAGGSAGGSARTVPPDLLVRVETPDEERIVPVSELDAFFARHPDVPWRDITVVDPATGAARSAGGSAGGSAG [r3_134_JUSTAS] | 0.539 ± 0.11 | -0.675 ± 0.37 |
| SAGGSAGGSAAPEALPPRLVVPRPVLIVDKAPLEEVEVEELRKAAEEFARAVPDAVVLVDEESAGGSAGGSA [r18_499_TrMRF] | 0.788 ± 0.12 | 0.0223 ± 0.23 |
| SAGGSAGGSDDAVTFTFTSAPTRLLYLDNPKTFPGSATVTLPAGNPDEFRIERFAPDTAELKPSAGGSAGGS [r20_150_TrMRF] | -0.427 ± 0.62 | < -1 |
| SAGGSAGGSAMVTVTILSEDTTDSPRTYTVLFPAEGKALPLPFPADASEAEVRARALELLASAGGSAGGSAG [r3_142_JUSTAS] | 0.673 ± 0.15 | < -1 |
| SAGGSAGGSAGAPVEVVITFESPTSRTTRTFPADLPEAEVERLAAALRAAHPEPVRVEPRSAGGSAGGSAGG [r11_515_JUSTAS] | -0.981 ± 0.48 | < -1 |
| SAGGSAGGSAGGSKSIYISPDDPNNIRTPDDGEPFKGMPIEEAKKEGIEPRGPNAFRIPSAGGSAGGSAGGS [r4_306_TrROS] | -0.152 ± 0.36 | -0.582 ± 0.54 |
| SAGGSAGGSAGSNVVYLGEEVITEVDPYSDKPYTVKVKVYLEPTPEGEKIIEEVLEKELLSAGGSAGGSAGG [r11_113_JUSTAS] | -0.719 ± 0.29 | -0.94 ± 0.33 |
| SAGKSKTITLEIYNKETNIIIKIEIEINGDEVTIKVYAFNKDGKLIAKAEIKFNKKTKKLEIKIEIKKLSAG [r5_747_TrROS_Hall] | 5.07 ± 0.33 | > 6 |
| SAGGSAGGSAGGGSMDELPEIEEIAYVTDPATGAVTTVPASQVPEVLASTNNTVTIRPVSAGGSAGGSAGGS [r10_1121_JUSTAS] | 0.363 ± 0.073 | < -1 |
| SAGGSAGGSGEYVVVLLREELPDEERYLRRPVPLDAALEALKEGKLVRSSEGREWRFAEYRPESAGGSAGGS [r12_432_TrMRF] | -0.0188 ± 0.33 | -0.218 ± 0.28 |
| SSMVVINFPDTKKATPETLRKEIEPVAAPGKPVLVTVYPPTGVVLKTATVEPDKVEEVDPSHPYIVEIVASA [r9_264_JUSTAS] | -0.377 ± 0.24 | -0.558 ± 0.16 |
| SAGGSAGGSAGGSSMKYFTRSASPDTTFTVKTPNGGVVNVTPTAAPGTYKYTFTLPGNSSAGGSAGGSAGGS [r4_360_JUSTAS] | -0.42 ± 0.44 | < -1 |
| SAGGSAGGMTARKTYEVEVPADDPDALADLAFDLPAGDTVYFRTPGPDLRAVVTDDVPVVEPAGSAGGSAGG [r6_550_TrMRF] | 0.0243 ± 0.18 | < -1 |
| SAGGSAHPVQFPNGQEFPIRNPKNGKDFKIRMEQEDGPMRAEIEYPGGGKKRRIDGPMSLEEALKQSAGGSA [r15_234_TrROS] | 0.509 ± 0.12 | -0.0891 ± 0.24 |
| SAMTISVSETPDTGSLTVPMTLEPDTVEEVVEEVAKEIAPEEAEVSIEVTEVVPHPDSVTVTAKITVRPSAG [r14_345_JUSTAS] | 0.361 ± 0.041 | -0.0666 ± 0.085 |
| SAGGSAGGSMTVDTTYDPSTDRVTLTVTIPAPDGSELVRTVQSTGDPEAAAAAAAAAVAAAAASAGGSAGGS [r20_33_JUSTAS] | -0.252 ± 0.14 | < -1 |
| SAGGSAGGSAGMKTRVTTFTYTEPVLLPDTGELRTVTTTVTFNKPLPEEPLFFTNTPNAGSAGGSAGGSAGG [r17_493_JUSTAS] | 0.149 ± 0.19 | -0.158 ± 0.19 |
